{
  "source": "the DeepSol protein solubility set",
  "test": "soluble on expression in E. coli; label from the status in PepcDB or PDB records",
  "data": [
    {"sequence": "MGSDKIHHHHHHMIKVEDKSRCCGCEACVSSCPLQCIELVKDKEGFMYPQVDTARCIDCGKCEKACPELVEAKGSGGVTVYAAVNPDKEARLASSSGGIFTLLAESVLAENGVVFGARFDKDWNVIHDYTETKEGLEAFRGSKYVQSRTGETFKQAEQFLKEGRKVLFSGTPCQIMGLKRYLHKEYDNLLAVDFVCHGVPSPLVWRKYIEETLVRQDEKIQFRPTLNHLFLDEMPLIEGISFRNKCLGWKKYSFALILSKVTTAGEKNTVSLSRIFYDNAYMKAFLANLSLRPACYRCPAKSGKSGSDITLGDFWGIEKIAPELDDDRGCSLLIINNPKVRDELRKKGCLLAEFPISEILPYNLSTAYSVSMPNNRKFFWFMFDKAGFHKALMLATSTTFPIRALRKLFRLI", "values": [
      {"measurement": "soluble on expression in E. coli", "result": "not soluble"}
    ]},
    {"sequence": "MSLASLIGLAVCTGNAFSPALAAEAKQPNLVIIMADDLGYGDLATYGHQIVKTPNIDRLAQEGVKFTDYYAPAPLSSPSRAGLLTGRMPFRTGIRSWIPSGKDVALGRNELTIANLLKAQGYDTAMMGKLHLNAGGDRTDQPQAQDMGFDYSLANTAGFVTDATLDNAKERPRYGMVYPTGWLRNGQPTPRADKMSGEYVSSEVVNWLDNKKDSKPFFLYVAFTEVHSPLASPKKYLDMYSQYMSAYQKQHPDLFYGDWADKPWRGVGEYYANISYLDAQVGKVLDKIKAMGEEDNTIVIFTSDNGPVTREARKVYELNLAGETDGLRGRKDNLWEGGIRVPAIIKYGKHLPQGMVSDTPVYGLDWMPTLAKMMNFKLPTDRTFDGESLVPVLEQKALKREKPLIFGIDMPFQDDPTDEWAIRDGDWKMIIDRNNKPKYLYNLKSDRYETLNLIGKKPDIEKQMYGKFLKYKTDIDNDSLMKARGDKPEAVTWGEGHHHHHH", "values": [
      {"measurement": "soluble on expression in E. coli", "result": "soluble"}
    ]},
    {"sequence": "MGSDKIHHHHHHMNIRKYIWAYVVAMALICPGVKAQEQITIGVIQYDVRDIDKSFKALHEQGFGSCELNYSEKRFTKELAEQVKAASEKHRIRVTTLVGVPGSKSTWNFRQGPATIGLVPIDERFEKLDLYRKMIDFCVQAGIPAMHSHFGFIPEDPSSAQYKDFIEVMRGLATYAKERNVLIYFETGQETPITLIRAIRDIGTGNLFINCDLANLLMYGKSNSLDAVKLFGNLIKEFHAKDGKYPDPNNPYELGHEVPIPTGDVDFPAVIAELKKQGFKGAITIECELNGTRHDYVIQTRKYLQELLDR", "values": [
      {"measurement": "soluble on expression in E. coli", "result": "not soluble"}
    ]},
    {"sequence": "MSLITQRSSMIGVVTAGFENPLRARLLSDLMAVLGQRAFTPLVTNADDPQQLRQALERLLSYRVAGLVMTSASPPLSVARQYLAHRIPVVMINREANLAGADVVVSDNAAGAAEAAQRLVHAGARRLAFVGPHTASFSARSRADAFAHALQRGNMSGATLASVIDTASDTHACGLDAAQQLFAAGHRPDGVFCSSDLLALGVIDAARAAFGLRVPDDVRVIGFDDIPAAAYHAYRLTTLRQDTQGLAHAAVDLLADRISAFDGASRTRVVPVTHVVRHSCAEGHHHHHH", "values": [
      {"measurement": "soluble on expression in E. coli", "result": "soluble"}
    ]},
    {"sequence": "MSTTTDYDDNDVKIITKPVQSKNPVLIEGFPGIGLVGNIASQHIIEELNMEYIGSIDSRYFPSIAVLYEGLINMPVRIYENVEHNLIIVISDIPISHSVSYDVSNALVDWAEAINVKEIASIAGIAIMDGGHKVFGAATTPEMLDKIRDKVEIFQMGTISGISGSVMAECLLRGIPAISLLGATRTQNPDPRAASSVIGVLNELYGLSISTDRLIEQAERIEIELQRLAEDVQATERKGEVKKEFPMYG", "values": [
      {"measurement": "soluble on expression in E. coli", "result": "soluble"}
    ]},
    {"sequence": "MGSDKIHHHHHHMNIRTLAAYMVFQCVFLISWSQDLKRVQKTITTLTSKTYHGRGAASNGDGLAAAYLEKQYKETGLKPVDTNFLQPFTYAINTFPGKMKLKSNLGVFKPGIDYIVKSTSGPGKGTCDVYLVDTLIFTDDGKLKEFLQLDVTALVVVYPKKYFKEFTASTPDLLKQLYSAAAIIELQDKKLTMALADQSFGTPVFEVLTTSFSPDIKTISFEIENELIKKHQANNVIGMIEGRSKKDSFIVLTAHYDHLGTLGRKAYFPGANDNASGVSMLLEFAHYYMENPPEYSMLFIAFAGEESGLLGSSYFVAHPLVPLAGIHFLINLDLLGTGDDGIMVVNGSVFKPAYNRLIAINEEKKLLPAIKMRGEAANSDHYPFYKKGVPCFFIYTLGGVAAYHDVQDVAKTLPLTKYREVFQLIVLFNGEK", "values": [
      {"measurement": "soluble on expression in E. coli", "result": "not soluble"}
    ]},
    {"sequence": "MGSDKIHHHHHHMKKKTAVVFGTFAPLHQGHIDLIQRAKRQCDQVWVVVSGYEGDRGEQVGLTLQKRFRYIREAFRGDELTLVCKLDETNLPRYPMGWQEWLDQMLAEISYDETQQELIFFVGEADYQQELSNRGFETVLQERKFGISATMIRENPSKYWKNIAQPFRRQFTKKVLIMGSASNGKTTLAKDLARYYDAPVSLEYAREYQIKNNVRDDELTPKDYYYLLLGQYDQTSKLIDSNANRGLVIADTNSLVTKGYYDYYMETEDQGDLSGETFDNLFVSILAKEKWDLILFVQPVGSYVNDGFRDMTMAEDHIRHSFSQHLDHMRERYLTTIPLVYLAEDYLGNYEAAKVAIDAIYQAD", "values": [
      {"measurement": "soluble on expression in E. coli", "result": "not soluble"}
    ]},
    {"sequence": "MSLYDELKNEFKRVLLDRQLTEELAEECATAFTDTTQAGAYSHGINRFPRFIQQLEQGDIVPNAIPTKVLSLGSIEQWDAHQAIGNLTAKKMMDRAIELASQHGVGVIALRNANHWMRGGSYGWQAAEKGYIGICWTNALAVMPPWGAKECRIGTNPLIIAVPTTPITMVDMSCSMYSYGMLEVHRLAGRQTFVDAGFDDEGNLTRDPSIVEKNRRLLPMGFWKGSGLSIVLDMIATLLSNGESTVAVTEDKNDEYCVSQVFIAIEVDRLIDGKSKDEKLNRIMDYVKTAERSDPTQAVRLPGHEFTTILSDNQTNGIPVDERVWAKLKTLEGHHHHHH", "values": [
      {"measurement": "soluble on expression in E. coli", "result": "not soluble"}
    ]},
    {"sequence": "MVMSQKTLFTKSALAVAVAIISTQAWSAGFQLNEFSSSGLGRAYSGEGAIADDAGNVSRNPALITMFDRPTFSAGAVYIDPDVNISGTSPSRRTLDADNIAPTAWVPNVHFVAPINDQFGWGASITSNYGLATEFNDTYAGGSVGGTTDLETMNLNLSGAYRLNEAWSFGLGFDAVYARAKIERFAGDLGQLVAAQNPALAPVAGQIPSDTKIAHLNGNQWGFGWNAGILYELDKNNRYALTYRSEVKIDFKGNYSSDLPIAINRFNLPIPTATGGATQSGYLTLNLPEMWEVSGYNRVAPQWAIHYSLAYTSWSQFQELKAKSTAGDTLFEKHEGFKDAYRIALGTTYYYDDNWTFRTGIAFDDSPVPAQNRSISIPDQDRFWLSAGTTYAFNKDASVDVGVSYMHGQSVKINEGPYQFESEGKAWLFGTNFNYAF", "values": [
      {"measurement": "soluble on expression in E. coli", "result": "not soluble"}
    ]},
    {"sequence": "MLEIRHLKTLHALREADSLVDAAERLHLTQSALSHQFKELEERMGMPLFVRKTKPVRFTSAGLRLLQLADSMLPQLRSAERDIARLAGGTAGRLHMAIECHSCFQWLMPTIDQFRDAWPEVELDLSSGFSFAPLPALARGDLDLVVTSDPLELPGITYVPLFTYEAMLAVANQHALASKPYIVPEDLLPETLITYPVERDRLDIFTRFLEPADIEPAQVRTSELTVMMMQLVASGRGVCGMPHWALHEYSSRGYVKAKRLGEKGLFATLYAGIRADMLDAPYMRDFLLTAKDTSFSTLDGVSVVR", "values": [
      {"measurement": "soluble on expression in E. coli", "result": "not soluble"}
    ]},
    {"sequence": "MGSDKIHHHHHHMGLLNLLSTNRNENLFLPAHGRGNSLPKNIKTLLRLRPGIWDLPELFEIGGPLISEGAIAESQKSSAYEVGVDRCWYGVNGATGLLQSSLLALAHPGQAVLMPRNIHKSCIQACLFGGLTPLLFDVPYLTDRGHASVMDRKWLQRVLKKAKEYEDDIAAVVLVNPTYQGYSADMESLIKEIHSHSLPVLVDEAHGAYLISQIRPDLPKSAISFGADLVVHSLHKSASGLVQSAVLWSQGDKVDPFKIERAIELLQTSSPSSLLLASCESSIKELLESKGIKKLRLCIEEAEMLKDFLIKNEVPLLKNSDPLKIILHTSKFGLSGIEVDKSFIRKRMIGELAEPGTLTFCLGLSSHKRLGKRFVRIWNEILKACGKQKPCFFKRPPFGIVSKPYKSYSDSWGSNFEKVNLKDAIGRISVEMVCPYPPGIPLLIPGEILDEARVDWLIEQKSFWPEQISDFVRVIS", "values": [
      {"measurement": "soluble on expression in E. coli", "result": "not soluble"}
    ]},
    {"sequence": "MGSDAKNLMSDGNVQIVKTGEVIGATQLTEGELIVEAGGRAENTVVTGAGWLKVATGGIAKCTQYGNNGTLSVSDGAIATDIVQSEGGAISLSTLATVNGRHPEGEFSVDKGYACGLLLENGGNLRVLEGHRAEKIILDQEGGLLVNGTTSAVVVDEGGELLVYPGGEASNCEINQGGVFMLAGKASDTLLAGGTMNNLGGEDSDTIVENGSIYRLGTDGLQLYSSGKTQNLSVNVGGRAEVHAGTLENAVIQGGTVILLSPTSADENFVVEEDRAPVELTGSVALLDGASMIIGYGAELQQSTITVQQGGVLILDGSTVKGDSVTFIVGNINLNGGKLWLITDAATHVQLKVKRLRGEGAICLQTSAKEISPDFINVKGEVTGDIHVEITDASRQTLCNALKLQPDEDGIGATLQPA", "values": [
      {"measurement": "soluble on expression in E. coli", "result": "soluble"}
    ]},
    {"sequence": "MGSDKIHHHHHHMKKRLGSQTARIDSKPRIVSAVSMVGPKEGRGPLKDYFDIILSDDMNGEESFEKAESNMLYTVITEVIKKSNLTENDIDYLFAGDLLNQITSSSFAARDAKIPFYGLYGACSTMTESLSIAAMIMDGGFADYTIAATSSHFSAAERQFRYPLEYGSQRKPDAQWTVTGAGAMLLARQGDFPYITFVTAGKVKDYGITSPDSMGEAMAPAAVDTIKQHFKDTGRTPQDYDVIATGDLGRVGKKITEDLLKKEYGYDMSNIYMDCGEKIFNCDEQDTNSGGSGCGCSAVVDCGYIYKNMLSGKIKKALLISTGALMSTTSNLQGESIPGIAHAVSIEFGGMKNE", "values": [
      {"measurement": "soluble on expression in E. coli", "result": "not soluble"}
    ]},
    {"sequence": "LKRLFWPVLLVVLGFGTYEGAQRLLPYADRPIARINVQGDLSYISQQAVQQRIAPYVASSFFKIDLAAMRTELEQMPWIAHAEVRRVWPDQVVIRLEEQLPVARWGDEALLNNQGQAFTPRELSNYEHLPQLFGPQRAQQQVMQQYQVLSQMLRPMGFSIVRLELRERGSWFLTTGAGSAGPGIELLLGRDHLVEKMRRFIAIYDKTLKEQITNIARVDLRYSNGLAVGWREQAAATTDKPAVAKN", "values": [
      {"measurement": "soluble on expression in E. coli", "result": "not soluble"}
    ]},
    {"sequence": "MGSDKIHHHHHHCTHKYKIEGTSSVNGLDGKMLYLKTLRDGEWTKLDSAEVVHGSFSMKGKIDSVQMTTLYMDDESVMPVVLESGKIVITISNTDLKAVGTPLNTALYDFIAKKNAMEESIGELERKETRMVMDGADLEEVHEQLLAEGDSLMKAMNQYVKTFISDNYENVLGPNVFIMLCSSLPYPIMTPQIDDIIKDAPYSFKSNKMVREFLTKAKENMQLIEEHQRMQQNVGSKK", "values": [
      {"measurement": "soluble on expression in E. coli", "result": "not soluble"}
    ]},
    {"sequence": "MEFRKSPSPDGDRIELVAIYDHDERIDMNDLHRSLTGFRILTLRISATYDQDIERIAFLPTIDKLTFCKDLLNAYNFQRIIMQSYEGIKAIGSRRTRIKLNDLLAANISFPIFMNVILPDAQLNLFIKYLIAGSNHRLDGFLFAKTPNAADFNEAAIFKGVNYQPVGGREAYPEFRNIQFQLHPRTRVFYVTNNNGILATVYLDIGLRYRIDIFPAGLMSSFPLLRLPSNELTKVLRHMNPIAQLGFSLLSEKSKNRISLLRIFSDEVSISVCAYKRKEKLTLRLRNSLSSLEVHKCGPDLVIVLQNWSDCTKLDFRREMSLRHWIDHCMELATAKRIDELTLSSIKKKHKFGISLLSERLKNLICSLQVFTTDVEIILRRSIELKIVPLFLVIGQTGQIEISSFTHFFLDNFIWIRPQMSTRNWIDHCLELTNNHRLNKLIVEAGDNQEIDMDGFYRSLIGLHIKTLELKGTYSRSIQLFGSLSNVDTIVLDVELVQTTDYQRMVVLNHTKLVETRTNRVKFSLNDLLASNASFLQFTNLRIPDTQLNLFLKHWIAGSNQRQEGFSLTKEHDEQSYNQSVILKGIETRPAVRRSEHHKFDEIFTLPQYSRTLDITNCDGVEATVYFGKSWLFNLGPVTNLCCMLVWG", "values": [
      {"measurement": "soluble on expression in E. coli", "result": "not soluble"}
    ]},
    {"sequence": "AQVPASGKLLVDPRYSTNDQEESILQDIITRFPNVVLMKQTAQLRAMMTIIRDKETPKEEFVFYADRLIRLLIEEALNELPFQKKEVTTPLDVSYHGVSFYSKICGVSIVRAGESMESGLRAVCRGVRIGKILIQRDETTAEPKLIYEKLPADIRERWVMLLDPMCATAGSVCKAIEVLLRLGVKEERIIFVNILAAPQGIERVFKEYPKVRMVTAAVDICLNSRYYIVPGIGDFGDRYFGTM", "values": [
      {"measurement": "soluble on expression in E. coli", "result": "soluble"}
    ]}
  ]
}
